Experimental findings from US20190062383A1 (Janssen / Centocor, published 2019) are described below.

In this assay the target is KV1N2 (OsK1-Fc fusion) (Orthochirus scrobiculosus). Kind of assay: FACS competition with agitoxin2-cys-TAMRA.

B1: hKv1.3 E3 loop/hKv1.5 chimera (receptor)
chain: MEIALVPLENGGAMTVRGGDEARAGCGQATGGELQCPPTAGLSDGPKEPAPKGRGAQRDADSGVRPLPPLPDPGVRPLPPLPEELPRPRRPPPEDEEEEGDPGLGTVEDQALGTASLHHQRVHINISGLRFETQLGTLAQFPNTLLGDPAKRLRYFDPLRNEYFFDRNRPSFDGILYYYQSGGRLRRPVNVSLDVFADEIRFYQLGDEAMERFREDEGFIKEEEKPLPRNEFQRQVWLIFEYPESSGSARAIAIVSVLVILISIITFCLETLPEFRDERELLRHPPAPHQPPAPAPGANGSGVMAPPSGPTVAPLLPRTLADPFFIVETTCVIWFTFELLVRFFACPSKAGFSRNIMNIIDVVAIFPYFITLGTELAEQQPGGGGGGQNGQQAMSLAILRVIRLVRVFRIFKLSRHSKGLQILGKTLQASMRELGLLIFFLFIGVILFSSAVYFAEADDPTSGFSSIPDAFWWAVVTMTTVGYGDMHPVTIGGKIVGSLCAIAGVLTIALPVPVIVSNFNYFYHRETDHEEPAVLKEEQGTQSQGPGLDRGVQRKVSGSRGSFCKAGGTLENADSARRGSCPLEKCNVKAKSNVDLRRSLYALCLDTSRETDL
As for B1, the binding result is listed as “binds”.
